Substitutions are numbered along the chain they refer to.
T1: Human B7H4 (ECD) Fc TM 6H (human, UniProt Q7Z7D3)
T1 construct: ECD, native leader
T1 sequence (Q7Z7D3 whole entry, looked up): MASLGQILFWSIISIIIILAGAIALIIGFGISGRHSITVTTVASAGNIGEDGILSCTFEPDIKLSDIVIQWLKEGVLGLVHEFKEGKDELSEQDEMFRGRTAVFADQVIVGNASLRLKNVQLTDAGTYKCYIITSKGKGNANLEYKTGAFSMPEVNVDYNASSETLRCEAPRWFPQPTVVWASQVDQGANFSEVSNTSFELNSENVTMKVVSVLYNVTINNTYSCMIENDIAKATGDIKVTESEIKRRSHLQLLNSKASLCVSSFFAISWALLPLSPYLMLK

T2: Human B7-H4-Fc (Human B7H4 ECD, Fc_6His) (human)
T2 construct: also called FcHis6 tagged human B7-H4
T2 sequence (Q7Z7D3 whole entry, looked up): T1 sequence (Q7Z7D3 whole entry, looked up)

T3: Human B7-H4 ECD-Flag-His10 (monomeric) (human, UniProt Q7Z7D3 25-259)
T3 construct: Minimally biotinylated for KinExA; also called hB7H4-ECD-Flag-His10; B7-H4-FLAG
T3 sequence: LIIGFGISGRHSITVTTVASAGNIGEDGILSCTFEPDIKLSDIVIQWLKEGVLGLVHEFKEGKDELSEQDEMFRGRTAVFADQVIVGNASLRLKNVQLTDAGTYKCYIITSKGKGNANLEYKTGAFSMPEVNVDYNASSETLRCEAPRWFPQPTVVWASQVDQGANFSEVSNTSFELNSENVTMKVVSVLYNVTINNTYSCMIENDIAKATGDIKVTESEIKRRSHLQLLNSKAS

T4: huB7-H3 (human, UniProt Q5ZPR3 29-461, limits assumed)
T4 construct: Sourced antigen; construct not described; also called Human B7-H3
T4 sequence (looked up): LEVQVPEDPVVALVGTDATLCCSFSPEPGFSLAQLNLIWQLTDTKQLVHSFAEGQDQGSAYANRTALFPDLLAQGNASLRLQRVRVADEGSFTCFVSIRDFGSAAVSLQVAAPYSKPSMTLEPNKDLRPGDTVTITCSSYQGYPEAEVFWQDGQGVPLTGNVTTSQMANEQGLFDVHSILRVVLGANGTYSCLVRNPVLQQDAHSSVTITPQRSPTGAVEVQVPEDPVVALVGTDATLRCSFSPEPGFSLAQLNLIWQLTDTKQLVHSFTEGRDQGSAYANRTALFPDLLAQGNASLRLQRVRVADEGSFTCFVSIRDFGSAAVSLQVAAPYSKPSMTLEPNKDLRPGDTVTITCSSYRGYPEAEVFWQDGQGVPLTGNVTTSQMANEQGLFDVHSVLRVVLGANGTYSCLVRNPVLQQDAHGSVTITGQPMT

T5: huBTN1A1 (human, UniProt Q13410 27-242, limits assumed)
T5 construct: Sourced antigen; construct not described; also called Human BTN1A1
T5 sequence (looked up): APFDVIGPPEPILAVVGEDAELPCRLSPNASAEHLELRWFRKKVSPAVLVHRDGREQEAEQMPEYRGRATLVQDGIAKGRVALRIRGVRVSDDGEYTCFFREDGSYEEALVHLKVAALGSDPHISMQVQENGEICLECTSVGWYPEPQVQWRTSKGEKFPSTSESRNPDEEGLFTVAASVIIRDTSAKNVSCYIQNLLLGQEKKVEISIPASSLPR

T6: Murine B7-H4-Fc (Mouse B7H4 ECD, Fc_6His) (mouse, UniProt Q7TSP5 25-257)
T6 construct: extracellular domain; also called mouse B7-H4-Fc; FcHis6 tagged murine B7-H4
T6 sequence (Q7TSP5 whole entry, looked up): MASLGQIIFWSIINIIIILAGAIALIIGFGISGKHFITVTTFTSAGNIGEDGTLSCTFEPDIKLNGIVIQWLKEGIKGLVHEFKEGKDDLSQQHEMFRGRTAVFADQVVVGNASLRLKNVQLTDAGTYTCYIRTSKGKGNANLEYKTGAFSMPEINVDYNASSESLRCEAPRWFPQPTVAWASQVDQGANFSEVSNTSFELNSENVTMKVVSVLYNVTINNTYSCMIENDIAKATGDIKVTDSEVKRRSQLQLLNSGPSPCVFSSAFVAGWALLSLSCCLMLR

T7: huBTNL3 (human, UniProt Q6UXE8 18-237, limits assumed)
T7 construct: Sourced antigen; construct not described; also called Human BTNL3
T7 sequence (looked up): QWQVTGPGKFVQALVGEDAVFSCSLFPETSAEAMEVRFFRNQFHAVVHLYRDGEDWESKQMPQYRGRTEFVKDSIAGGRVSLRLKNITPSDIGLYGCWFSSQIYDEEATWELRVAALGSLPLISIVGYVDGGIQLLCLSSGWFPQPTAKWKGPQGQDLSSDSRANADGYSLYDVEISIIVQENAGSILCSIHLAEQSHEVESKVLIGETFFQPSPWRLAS

T8: huBTN2A1 (human, UniProt Q7KYR7 29-248, limits assumed)
T8 construct: Sourced antigen; construct not described; also called Human BTN2A1
T8 sequence (looked up): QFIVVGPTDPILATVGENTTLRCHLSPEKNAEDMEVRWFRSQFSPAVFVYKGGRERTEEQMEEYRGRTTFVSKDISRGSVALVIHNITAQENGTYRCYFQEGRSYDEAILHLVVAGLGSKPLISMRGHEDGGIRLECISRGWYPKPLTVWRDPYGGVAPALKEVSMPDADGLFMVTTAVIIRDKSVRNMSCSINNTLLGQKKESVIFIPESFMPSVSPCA

T9: huB7-H2 (human, UniProt O75144 19-258)
T9 construct: Sourced antigen; construct not described; also called Human B7-H2
T9 sequence (looked up): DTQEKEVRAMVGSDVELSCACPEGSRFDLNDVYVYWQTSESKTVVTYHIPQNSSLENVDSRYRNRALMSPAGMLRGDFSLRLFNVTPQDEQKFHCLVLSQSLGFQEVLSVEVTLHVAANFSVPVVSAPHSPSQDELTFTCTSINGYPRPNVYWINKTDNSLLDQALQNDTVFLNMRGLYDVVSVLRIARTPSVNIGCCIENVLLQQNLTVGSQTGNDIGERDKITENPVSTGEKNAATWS

T10: huHHLA2 (human, UniProt Q9UM44 23-344)
T10 construct: Sourced antigen; construct not described; also called Human HHLA2
T10 sequence (looked up): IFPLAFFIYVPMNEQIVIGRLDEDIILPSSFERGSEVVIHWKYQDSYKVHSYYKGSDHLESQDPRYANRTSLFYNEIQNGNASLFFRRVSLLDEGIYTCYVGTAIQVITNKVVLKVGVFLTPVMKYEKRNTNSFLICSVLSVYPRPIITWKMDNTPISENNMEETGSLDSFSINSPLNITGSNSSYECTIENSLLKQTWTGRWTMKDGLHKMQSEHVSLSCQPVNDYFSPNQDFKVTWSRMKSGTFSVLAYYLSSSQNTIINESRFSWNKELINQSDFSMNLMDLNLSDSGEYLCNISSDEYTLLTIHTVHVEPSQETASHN

B1: E02-GL-maia (antibody, human IgG1, kappa)
heavy: QVQLQQWGAGLLKPSETLSLACTVYGGSFSGYYWNWIRQPPGKGLEWIGEINHSGSTSYNPSLKSRVTISVDTSKNQFSLKLSSVTAADTAVYYCARVLYNWNVDSWGQGTLVTVSSASTKGPSVFPLAPSSKSTSGGTAALGCLVKDYFPEPVTVSWNSGALTSGVHTFPAVLQSSGLYSLSSVVTVPSSSLGTQTYICNVNHKPSNTKVDKRVEPKSCDKTHTCPPCPAPELLGGPSCVFLFPPKPKDTLMISRTPEVTCVVVDVSHEDPEVKFNWYVDGVEVHNAKTKPREEQYNSTYRVVSVLTVLHQDWLNGKEYKCKVSNKALPAPIEKTISKAKGQPREPQVYTLPPSREEMTKNQVSLTCLVKGFYPSDIAVEWESNGQPENNYKTTPPVLDSDGSFFLYSKLTVDKSRWQQGNVFSCSVMHEALHNHYTQKSLSLSPGK
light: DIQMTQSPSSLSASVGDRVTITCRASQDIRNDVGWYQQKPGKAPKRLIYAASRLQSGVPSRFSGSGSGTEFTLTISSLQPEDFATYYCLQHNSYPRTFGQGTKVEIKRTVAAPSVFIFPPSDEQLKSGTASVVCLLNNFYPREAKVQWKVDNALQSGNSQESVTEQDSKDSTYSLSSTLTLSKADYEKHKVYACEVTHQGLSSPVTKSFNRGEC
notes: Maia format: cysteine insertion in the IgG1 constant region; also called germlined (GL) Maia format mAb
B2: ZY0EPQ-E02 murine IgG1 (antibody, V domains shown)
VH: QVQLQQWGAGLLKPSETLSLTCAVYGGSFSGYYWNWIRQPPGKGLEWIGEINHSGSTNYNPSLKSRVTILVDTSKNQFSLKLSSVTAADTAVYYCARNLYNWNLDSWGQGTLVTVSS
VL: DIQMTQSPSSLSASVGDRVTITCRASQGIRNDLGWYQQKPGRAPKRLIYVASSLQSGVPSRFSGSGSGTEFTLTISSLQPEDFATYYCLQHNSYPRTFGQGTKVEIK
B3: ZY0EQD-E02 murine IgG1 (antibody, V domains shown)
VH: B2 VH with N58S, L70S, N98V, L104V
VL: B2 VL with G28D, L33V, R42K, V50A, S53R
B4: E02-GL (ZY0EQD_E02, germlined) (antibody, V domains shown)
VH: B2 VH with T21A, A23T, N58S, L70S, N98V, L104V
VL: B2 VL with G28D, L33V, R42K, V50A, S53R
notes: AF647-labelled in flow cytometry; also called EQD-E02_GL; ZY0EQD-E02-GL

Tests used:
[1] = target: T1, Human B7H4 (ECD) Fc TM 6H; experiment: ELISA, absorbance 450 nm, Human B7H4 (ECD) Fc TM 6H; x axis printed as antigen concentration (nM)
[2] = target: T11, Cyno B7-H4-Fc (Cyno B7H4 ECD, FcTM_6His) (cynomolgus monkey); experiment: ELISA, absorbance 450 nm, Cyno B7H4 (ECD) Fc TM 6H; x axis printed as antigen concentration (nM)
T11 construct: extracellular domain; also called cynomolgus B7-H4-Fc

[3] = target: T11, Cyno B7-H4-Fc (Cyno B7H4 ECD, FcTM_6His); experiment: HTRF binding, murine IgG1
[4] = target: T2, Human B7-H4-Fc (Human B7H4 ECD, Fc_6His); experiment: HTRF binding, murine IgG1
[5] = target: T3, Human B7-H4 ECD-Flag-His10 (monomeric); experiment: ELISA, absorbance 450 nm; x axis of this panel printed as Antibody Conc (µg/ml)
[6] = target: T2, Human B7-H4-Fc (Human B7H4 ECD, Fc_6His); experiment: as above
[7] = target: T4, huB7-H3; experiment: ELISA, absorbance 450 nm, antigen human B7-H3 (ECD) Fc
[8] = target: T5, huBTN1A1; experiment: ELISA, absorbance 450 nm, antigen human BTN1A1 GST
[9] = target: T12, huBTN3A2 (human, UniProt P78410 30-248, limits assumed); experiment: ELISA, absorbance 450 nm, antigen human BTN3A2 GST
T12 construct: Sourced antigen; construct not described; also called Human BTN3A2
T12 sequence (P78410 30-248 limits assumed): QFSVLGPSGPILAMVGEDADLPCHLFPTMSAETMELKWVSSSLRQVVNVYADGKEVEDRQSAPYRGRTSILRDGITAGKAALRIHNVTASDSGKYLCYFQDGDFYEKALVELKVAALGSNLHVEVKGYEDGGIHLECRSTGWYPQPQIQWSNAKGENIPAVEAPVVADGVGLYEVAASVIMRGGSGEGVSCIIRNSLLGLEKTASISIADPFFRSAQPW

[10] = target: T6, Murine B7-H4-Fc (Mouse B7H4 ECD, …); experiment: HTRF binding, murine IgG1
[11] = target: T7, huBTNL3; experiment: ELISA
[12] = target: T8, huBTN2A1; experiment: ELISA
[13] = target: T9, huB7-H2; experiment: ELISA, absorbance 450 nm, antigen human B7-H2 (ECD) F10H
[14] = target: T13, huB7-H1 (human, UniProt Q9NZQ7 19-238); experiment: ELISA, absorbance 450 nm, antigen human B7-H1(ECD) F10H
T13 construct: Sourced antigen; construct not described; also called Human B7-H1
T13 sequence (Q9NZQ7 19-238 limits assumed): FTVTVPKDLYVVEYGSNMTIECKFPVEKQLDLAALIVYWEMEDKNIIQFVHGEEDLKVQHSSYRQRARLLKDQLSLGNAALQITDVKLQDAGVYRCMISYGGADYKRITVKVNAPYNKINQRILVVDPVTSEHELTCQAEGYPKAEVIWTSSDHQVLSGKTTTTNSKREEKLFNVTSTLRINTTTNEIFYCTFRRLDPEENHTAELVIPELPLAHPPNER

[15] = target: T10, huHHLA2; experiment: ELISA, absorbance 450 nm, antigen human HHLA2 GST
[16] = target: T3, Human B7-H4 ECD-Flag-His10 (monomeric); experiment: ELISA, absorbance 450 nm; x axis printed as antigen concentration (µg/ml)
[17] = target: T2, Human B7-H4-Fc (Human B7H4 ECD, Fc_6His); experiment: as above
[18] = target: T2, Human B7-H4-Fc (Human B7H4 ECD, Fc_6His); experiment: ELISA on coated human B7H4/Fc, absorbance 450 nm, [IgG] 0.006 to 100 nM

Row | Binder | EC50 [3] | Max [3] | EC50 [4] | Max [4] | binding result [7] | binding result [8] | binding result [9] | EC50 [10] | Max [10] | binding result [11] | binding result [12] | binding result [13] | binding result [14] | binding result [15] | other results
1 | B1 |  |  |  |  |  |  |  |  |  |  |  |  |  |  | EC50 (read off the curve) [1]: ~10 nM; EC50 (read off the curve) [2]: ~10 nM
2 | B2 | 0.38 nM | 2240 | 0.38 nM | 2740 | no binding | no binding (tested: 10 µg/ml (antigen)) | no binding (tested: about 10 µg/ml (antigen)) | 2.03 nM | 790 | no binding | no binding | no binding (tested: 10 µg/ml (antigen)) | no binding (tested: 10 µg/ml (antigen)) | no binding (tested: about 10 µg/ml (antigen)) | EC50 (read off the curve) [5]: ~0.2 µg/mL; EC50 (read off the curve) [6]: ~0.2 µg/mL
3 | B3 | 0.22 nM | 2490 | 0.22 nM | 3170 | no binding | no binding (tested: 10 µg/ml (antigen)) | no binding (tested: about 10 µg/ml (antigen)) | 3.64 nM | 447 | no binding | no binding | no binding (tested: 10 µg/ml (antigen)) | no binding (tested: 10 µg/ml (antigen)) | no binding (tested: about 10 µg/ml (antigen)) | EC50 (read off the curve) [16]: ~0.04 µg/mL; EC50 (read off the curve) [17]: ~0.03 µg/mL
4 | B4 |  |  |  |  |  |  |  |  |  |  |  |  |  |  | EC50 (read off the curve) [18]: ~0.5 nM
